Molecular target: the molecule itself
Experiment: SEC

B1: E. coli HemG (recombinant, six histidine-tagged) (enzyme, UniProt P0ACB4 1-181, looked up)
chain: MKTLILFSTRDGQTREIASYLASELKELGIQADVANVHRIEEPQWENYDRVVIGASIRYGHYHSAFQEFVKKHATRLNSMPSAFYSVNLVARKPEKRTPQTNSYARKFLMNSQWRPDRCAVIAGALRYPRYRWYDRFMIKLIMKMSGGETDTRKEVVYTDWEQVANFAREIAHLTDKPTLK
**Q.** B1 was tested. Which “stoichiometry N” value did it give?
**A.** Its value is 4.
